Measured values as given in patent US20170137467A1 (CHROMOTEK, published 2017).
Numbering of substitutions follows the chain as printed. Square brackets hold non-standard residues; d marks the D form. GABA = NCCCC(=O)O

Experiments:
Assay in all cases: positional peptide library pulldown on immobilised Nb, LC-MS of supernatant; signal ratio to control GFP-Nb (1 = not captured, near 0 = captured)
BC2T Q11W = molecular target: T1, BC2T Q11W
T1 construct: positional scanning library member
T1 peptide: Ac-PDRKAAVSHWWQ-NH2
Text: (§1) In total, 12 different BC2T libraries displaying all 20 proteinogenic amino acids in one single position of the peptide were used in immunoprecipitation experiments. […] The direct comparison with the GFP-Nb made it possible to determine the quantitative degree of peptide capture without the need of labeled standards. […] The more peptide was captured the more the value approximates 0. It was not possible to discriminate between isoleucine (I) and leucine (L) peptide versions since these peptides are isobaric.
(§2) To investigate the binding specificity of the BC2T and derived mutants peptide libraries for each amino acid position of the sequence […] (SEQ ID NO:4) were synthesized with acetyl and amide groups located at the N-termini or C-termini respectively (Intavis). […] Incubations were performed in 300 μl PBS/0.01% CHAPS for 1 h on a HulaMixer (Life Technologies). Subsequent to a centrifugation step 10 μl supernatant were analyzed in a LC-MS procedure. Peptides were separated using an UltiMate3000 RSLCnano System (Thermo Scientific), composed of a C18 PepMap100μ-Precolumn (300 μm×5 mm; particle size: 5 μm; pore size: 100 Å—Thermo Scientific) and a C18 analytical column (Acclaim Rapid Separation LC (RSLC) Column: 150 mm×5 mm; particle size: 2.2 μm; pore size: 100 Å—Thermo Scientific). A step gradient was applied starting at 8% and ending after 20 min at 30% eluent B (80% acetonitrile, 20% H₂O, 0.1% formic acid).

BC2T S8N = molecular target: T2, BC2T S8N
T2 construct: positional scanning library member
T2 peptide: Ac-PDRKAAVNHWQQ-NH2
Text: as §1, §2

BC2T S8G = molecular target: T3, BC2T S8G
T3 construct: positional scanning library member
T3 peptide: Ac-PDRKAAVGHWQQ-NH2
Text: as §1, §2

BC2T Q11T = molecular target: T4, BC2T Q11T
T4 construct: positional scanning library member
T4 peptide: Ac-PDRKAAVSHWTQ-NH2
Text: as §1, §2

BC2T S8F = molecular target: T5, BC2T S8F
T5 construct: positional scanning library member
T5 peptide: Ac-PDRKAAVFHWQQ-NH2
Text: as §1, §2

BC2T H9F = molecular target: T6, BC2T H9F
T6 construct: positional scanning library member
T6 peptide: Ac-PDRKAAVSFWQQ-NH2
Text: as §1, §2

BC2T S8R = molecular target: T7, BC2T S8R
T7 construct: positional scanning library member
T7 peptide: Ac-PDRKAAVRHWQQ-NH2
Text: as §1, §2

BC2T W10P = molecular target: T8, BC2T W10P
T8 construct: positional scanning library member
T8 peptide: Ac-PDRKAAVSHPQQ-NH2
Text: as §1, §2

BC2T Q12T = molecular target: T9, BC2T Q12T
T9 construct: positional scanning library member
T9 peptide: Ac-PDRKAAVSHWQT-NH2
Text: as §1, §2

BC2T Q11F = molecular target: T10, BC2T Q11F
T10 construct: positional scanning library member
T10 peptide: Ac-PDRKAAVSHWFQ-NH2
Text: as §1, §2

BC2T W10C(Abu) = molecular target: T11, BC2T W10C(Abu) (SMILES …)
T11 construct: positional scanning library member
T11 peptide: Ac-PDRKAAVSH[GABA]QQ-NH2
Text: as §1, §2

BC2T W10T = molecular target: T12, BC2T W10T
T12 construct: positional scanning library member
T12 peptide: Ac-PDRKAAVSHTQQ-NH2
Text: as §1, §2

BC2T Q11G = molecular target: T13, BC2T Q11G
T13 construct: positional scanning library member
T13 peptide: Ac-PDRKAAVSHWGQ-NH2
Text: as §1, §2

BC2T Q11N = molecular target: T14, BC2T Q11N
T14 construct: positional scanning library member
T14 peptide: Ac-PDRKAAVSHWNQ-NH2
Text: as §1, §2

BC2T S8H = molecular target: T15, BC2T S8H
T15 construct: positional scanning library member
T15 peptide: Ac-PDRKAAVHHWQQ-NH2
Text: as §1, §2

BC2T Q11M = molecular target: T16, BC2T Q11M
T16 construct: positional scanning library member
T16 peptide: Ac-PDRKAAVSHWMQ-NH2
Text: as §1, §2

BC2T S8A = molecular target: T17, BC2T S8A
T17 construct: positional scanning library member
T17 peptide: Ac-PDRKAAVAHWQQ-NH2
Text: as §1, §2

BC2T W10Y = molecular target: T18, BC2T W10Y
T18 construct: positional scanning library member
T18 peptide: Ac-PDRKAAVSHYQQ-NH2
Text: as §1, §2

BC2T W10Q = molecular target: T19, BC2T W10Q
T19 construct: positional scanning library member
T19 peptide: Ac-PDRKAAVSHQQQ-NH2
Text: as §1, §2

BC2T Q12V = molecular target: T20, BC2T Q12V
T20 construct: positional scanning library member
T20 peptide: Ac-PDRKAAVSHWQV-NH2
Text: as §1, §2

BC2T W10N = molecular target: T21, BC2T W10N
T21 construct: positional scanning library member
T21 peptide: Ac-PDRKAAVSHNQQ-NH2
Text: as §1, §2

B1: BC2 nanobody (VHH)
VHH: QVQLVESGGGLVQPGGSLTLSCTASGFTLDHYDIGWFRQAPGKEREGVSCINNSDDDTYYADSVKGRFTIFMDNAKDTVYLQMNSLKPEDTAIYYCAEARGCKRGRYEYDFWGQGTQVTVSS
notes: immobilised on beads in this assay; also called BC2-Nb; BC2 nanotrap (immobilised)
ratio (BC2T Q11W): 0
ratio (BC2T S8N): 0.2
ratio (BC2T S8G): 0.5
ratio (BC2T Q11T): 0.1
ratio (BC2T S8F): 0.7
ratio (BC2T H9F): 0.1
ratio (BC2T S8R): 0.5
ratio (BC2T W10P): 1.1
ratio (BC2T Q12T): 0.1
ratio (BC2T Q11F): 0
ratio (BC2T W10C(Abu)): 1
ratio (BC2T W10T): 1
ratio (BC2T Q11G): 0.1
ratio (BC2T Q11N): 0.1
ratio (BC2T S8H): 0.7
ratio (BC2T Q11M): 0.1
ratio (BC2T S8A): 0
ratio (BC2T W10Y): 1
ratio (BC2T W10Q): 1.1
ratio (BC2T Q12V): 0.1
ratio (BC2T W10N): 1

B2: BC2-NbR106S (VHH)
VHH: B1 VHH with R106S
notes: headlock mutant of BC2-Nb; immobilised on beads in this assay
ratio (BC2T Q11W): 0.1
ratio (BC2T S8N): 0.7
ratio (BC2T S8G): 0.9
ratio (BC2T Q11T): 0.2
ratio (BC2T S8F): 0.9
ratio (BC2T H9F): 0.3
ratio (BC2T S8R): 0.9
ratio (BC2T W10P): 1.1
ratio (BC2T Q12T): 0.3
ratio (BC2T Q11F): 0.2
ratio (BC2T W10C(Abu)): 1
ratio (BC2T W10T): 1
ratio (BC2T Q11G): 0.5
ratio (BC2T Q11N): 0.3
ratio (BC2T S8H): 0.9
ratio (BC2T Q11M): 0.3
ratio (BC2T S8A): 0.1
ratio (BC2T W10Y): 1
ratio (BC2T W10Q): 1.1
ratio (BC2T Q12V): 0.2
ratio (BC2T W10N): 1.1
